# Laboratory results as given in PMC10728164.
# Target: cardiac troponin I (human (endogenous in heart tissue)) (UniProt P19429)
# Experiment: affinity purification with mass spectrometry; co-purification of the cTn subunits from human heart extract on the cTnI-binding peptide nanoparticles (NP-Pep); 25 mM Tris pH 7.5, 700 mM LiCl, 4 °C; native elution; subunits in the eluate analysed (Supplementary Fig. 2, 3a) and by top-down RPLC-MS/MS
# UniProt P19429, sequence (P19429 whole entry): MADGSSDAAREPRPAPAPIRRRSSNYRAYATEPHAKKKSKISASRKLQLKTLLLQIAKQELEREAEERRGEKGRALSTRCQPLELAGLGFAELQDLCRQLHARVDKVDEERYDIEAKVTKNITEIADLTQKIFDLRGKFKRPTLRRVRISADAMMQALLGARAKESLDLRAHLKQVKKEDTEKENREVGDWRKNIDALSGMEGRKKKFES
substance,measurement,value
cardiac troponin T (natural protein),stoichiometry N,1
